According to the supplement of paper PMC10724198:
± gives the standard deviation of the averaged measurements.

Test system: Saccharomyces cerevisiae
Assay: protein stability index of tFT-peptide fusion (C-terminal peptide) (PSI (0-1 scale)); higher = more stable (slower turnover)
Details: genetic background: wild type; temperature: 30 C
Method: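 Multiplexed protein stability (MPS) profiling in S. cerevisiae. Random 12-aa peptides (tFT-X12 library) are fused to the C-terminus of a sfGFP-mCherry tandem fluorescent timer, after mCherry and a GGGS linker. Cells are FACS-sorted into 8 mCherry/sfGFP bins and deep-sequenced. The protein stability index (PSI) is the read-weighted bin average, scaled from 0 (unstable) to 1 (stable). Only peptides with >10 reads are reported; cells were grown at 30 °C in SC-His with glucose.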
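Note: PSI is a weighted mean of sequencing reads over stability bins, variants kept only with over 10 reads, mCherry proximal and sfGFP distal, peptide attached via GGGS linker.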

Sequence | protein stability index
AIRTPPTRTPPA | 0.71 ± 0.049
KVKGKSISKINH | 0.645 ± 0.055
RTRLPYVPAPAP | 0.686 ± 0.0092
PTPPPAFGFPPP | 0.688 ± 0.16
AIGSVWACVCCS | 0.504 ± 0.095
RFPRSSPPHRSL | 0.717 ± 0.023
LLRFVGVRVRGA | 0.646 ± 0.094
DQEENKRTNGTR | 0.7096 ± 0.0034
LLPSSPRTFPLL | 0.6731 ± 0.0008
KKKKRKKKKINI | 0.611 ± 0.038
VGDGLGGGGQGG | 0.664 ± 0.056
VGPGVLVLGVGA | 0.68 ± 0.035
ARPVPRAPSRYA | 0.647 ± 0.047
PPFPPPPPPSPS | 0.751 ± 0.07
APVWSINKTRVM | 0.671 ± 0.045
PRAHIDWALTVM | 0.548 ± 0.065
IMGIIKFKSYRI | 0.703 ± 0.12
PSPRSFLSIRFL | 0.581 ± 0.013
KIYLKDKKKSKK | 0.668 ± 0.057
LLGRIASCKIWL | 0.657 ± 0.019
TLRVQNKRKSEE | 0.663 ± 0.028
KMGKIQKVKGIK | 0.731 ± 0.012
PRDSPPPPPPPP | 0.699 ± 0.027
GSLSIVVCSFEF | 0.542 ± 0.044
ISSNMIVMAICG | 0.6 ± 0.03

Sequence | protein stability index
SFPPPHPPPPLP | 0.6998 ± 0.0045
LICLTIHNEGSK | 0.583 ± 0.017
PHTHHAPNTRNQ | 0.6797 ± 0.0036
GISKHGAITSRI | 0.725 ± 0.0033
RLKFHRLVMTGY | 0.612 ± 0.031
STLIARAQRGQA | 0.639 ± 0.073
KDQRAKRRRREE | 0.679 ± 0.08
PTGSHARRRPRR | 0.65 ± 0.023
LITDSQWLSSLS | 0.731 ± 0.02
QPPLSDYHQARR | 0.683 ± 0.023
EVSHLGLVCGHL | 0.653 ± 0.081
SLARGFVVPMWP | 0.707 ± 0.045
WSLIARYSPCHF | 0.67 ± 0.027
LALFPDPSSIIL | 0.7765 ± 0.0075
KEHKSQRSRVWR | 0.719 ± 0.011
CSDGAFELRRDG | 0.544 ± 0.078
CLWLALMSIFLP | 0.539 ± 0.03
PLCAFLFLSSPP | 0.757 ± 0.031
GWLGPGCVGRMQ | 0.733 ± 0.068
SVKGRVPLYVSE | 0.658 ± 0.042
RDAWLGMSQYTF | 0.7302 ± 0.0051
GFVPRSFNTLTS | 0.664 ± 0.053
RLTSPVLLFPLP | 0.713 ± 0.013
RARNRPKTEYHI | 0.6826 ± 0.0025
DSTLCSCSLHTS | 0.777 ± 0.12

Sequence | protein stability index
GFTCGCSSMKNF | 0.718 ± 0.021
GRCWAGAMGVVG | 0.71 ± 0.015
SLEALARDRFCT | 0.724 ± 0.014
VGPFSSSRIGTS | 0.6003 ± 0.0019
CTAWGGWWTGRR | 0.743 ± 0.16
ERWGGSGGGCAA | 0.67 ± 0.051
PHPLPPPTPSVP | 0.677 ± 0.018
CHPFQAAVPIYL | 0.581 ± 0.12
LGCCVFGFVFPS | 0.672 ± 0.047
YRLCEARVQSDN | 0.685 ± 0.022
EISKKKKQTKRK | 0.768 ± 0.12
PLPLPLLPPPLP | 0.764 ± 0.11
FLGAVVGVGLVG | 0.658 ± 0.053
AFSGMMSVFREW | 0.695 ± 0.049
YIIEGKRKYNRI | 0.682 ± 0.029
VGGEGVGVGGEV | 0.616 ± 0.018
CPSAPHNTLSTG | 0.68 ± 0.052
WVPGPLEPSLVL | 0.774 ± 0.0096
PYTPRSTSPPPL | 0.7702 ± 0.0066
LRFRGKSQNDYD | 0.67 ± 0.058
GGMAFSRPSFNG | 0.729 ± 0.032
YMLSMIYEIEMM | 0.578 ± 0.04
PSALGYFRWAVG | 0.68 ± 0.042
GHWTRRPSVKGK | 0.643 ± 0.0092
ARNDAGKRERVT | 0.696 ± 0.016

Sequence | protein stability index
IYAQFCSLYDHP | 0.702 ± 0.013
SYLVLLHDRGMK | 0.665 ± 0.011
LVCPFFLSSRIF | 0.653 ± 0.025
EMGGLKACWGVG | 0.572 ± 0.022
KEKKAKKSRKKR | 0.665 ± 0.084
GAVRGGSGDWGR | 0.723 ± 0.0083
MQLPSHFEAWTS | 0.781 ± 0.03
PSSPPDLAFRPP | 0.6157 ± 0.0049
PFAFLSPLIPPP | 0.749 ± 0.013
RVSGYTHPLLSC | 0.679 ± 0.079
PLPLAPHPDYSL | 0.687 ± 0.052
GTMAVWKGQRSG | 0.698 ± 0.04
SLPWVLLPTGPY | 0.751 ± 0.075
WEWFKWRDHNRY | 0.803 ± 0.037
RWVEGVWGVWCG | 0.757 ± 0.042
GNGRGKKEGPKN | 0.657 ± 0.01
FSLLLSFPCSYL | 0.601 ± 0.021
SPRGRGARRGRI | 0.705 ± 0.028
NKRLKNKIKRIK | 0.651 ± 0.037
LLSAPFRSFFTL | 0.5548 ± 0.0046
LGSIKCKLSSGI | 0.666 ± 0.052
FFVSHLLRFAIK | 0.555 ± 0.0089
GADSWFGVVDVC | 0.75 ± 0.1
REREKITRKRNT | 0.69 ± 0.01
LGGVLVGDWVGI | 0.7125 ± 0.0042

Sequence | protein stability index
SGGRSPYLLVGL | 0.725 ± 0.053
VGGAVGAGGGGG | 0.649 ± 0.032
YRFFGGYWETGW | 0.744 ± 0.033
ESFGGKAGRDSM | 0.772 ± 0.049
DARRAKPTRRNA | 0.688 ± 0.059
SLPSRPLSFYSP | 0.715 ± 0.068
EKLVAERGMYAT | 0.684 ± 0.041
GGGGEDQSQGPP | 0.69 ± 0.027
PCSVPHSGSAPA | 0.712 ± 0.044
DYLGGGARSEVD | 0.745 ± 0.029
GLNLDLSGRLAF | 0.703 ± 0.032
RYSRVALRPRPP | 0.579 ± 0.052
PPARRPVPPLSC | 0.7187 ± 0.0058
RGLGVFGVVSPA | 0.7 ± 0.057
KEKKNNRQRKER | 0.642 ± 0.016
AGRSCGRHEPPK | 0.579 ± 0.098
LKMRIYEKNGKE | 0.669 ± 0.049
RIDLFCVRSSLV | 0.6573 ± 0.0054
GVTGGWVVNRGV | 0.7054 ± 0.007
LTWRVDECPPYS | 0.712 ± 0.038
MRPSLIKVFLTR | 0.632 ± 0.04
LPPRIPRPDVSF | 0.72 ± 0.0075
PPPPRLPARLAP | 0.77 ± 0.16
PYNLSSRPSTLL | 0.625 ± 0.053
HRFPPPRPPPFS | 0.729 ± 0.047

Sequence | protein stability index
GVLRGNRITECF | 0.716 ± 0.049
PPSPPPVRPHPP | 0.587 ± 0.068
LSPLSVPAPPSP | 0.655 ± 0.027
TVRFTHQRNTVK | 0.689 ± 0.037
KKIRSMRREGQR | 0.714 ± 0.08
VPPHLLLSLSPP | 0.635 ± 0.02
WGGGGGWSGACL | 0.6909 ± 0.0059
LLVMRGMRGCGT | 0.681 ± 0.056
GWPLWGAVRGFW | 0.71 ± 0.035
RARGGGAEPGRN | 0.685 ± 0.027
PVSCPPPPLHMS | 0.661 ± 0.013
FVWSGVGCWSEA | 0.701 ± 0.0076
PPPSHLGSLDPL | 0.661 ± 0.02
QASRGSLPSEIE | 0.6414 ± 0.0029
TLAPVRAFVEFR | 0.656 ± 0.022
VILTAISPAFSV | 0.647 ± 0.013
VGSSRWRHVGRR | 0.6742 ± 0.0063
SKKLSMNIIITN | 0.653 ± 0.0047
YGIILPIRVSGF | 0.631 ± 0.035
WVRIGVEFGWGE | 0.689 ± 0.11
LRRGRLVSSAAF | 0.802 ± 0.077
PPTPPPPSPLAP | 0.73 ± 0.034
SWCDKGSCLVDE | 0.695 ± 0.07
AGGWLRGWLGVG | 0.673 ± 0.047
PPSPPPPPASPP | 0.6805 ± 0.0015

Sequence | protein stability index
CTSCDVFVFCPF | 0.708 ± 0.036
LYLKKIQQGIIK | 0.69 ± 0.039
GQLAERYRPARP | 0.6903 ± 0.003
LAVNGEIERVCD | 0.636 ± 0.11
RVFDPSRSTVVE | 0.774 ± 0.018
PLPFPSSPPPPP | 0.6723 ± 0.0018
YHNFLPRPPRKR | 0.662 ± 0.077
SSPLSSRFLLCL | 0.579 ± 0.027
PHLTPRRQHRLR | 0.667 ± 0.049
DARKTKNRKDTA | 0.699 ± 0.024
PFWTPASPPSFY | 0.748 ± 0.014
RLPLSSPLRFSL | 0.712 ± 0.06
PLPPSPPPPPSP | 0.677 ± 0.019
LHLPLPPLQLSL | 0.697 ± 0.0072
AIERCCTSRRRR | 0.701 ± 0.041
IRPRRFSPGSTR | 0.7 ± 0.043
PAFRSDKQQSQE | 0.703 ± 0.074
IGEAWERGQEAK | 0.679 ± 0.027
PPVPPPLPSPPP | 0.712 ± 0.025
NSGSRGTRVVGL | 0.705 ± 0.084
IMVLKAAVSKQE | 0.69 ± 0.09
VQSWGGRGMVVW | 0.719 ± 0.036
AISSPVLSYATP | 0.657 ± 0.0035
GVGVHAASGGEN | 0.723 ± 0.009
LFCVARARLGCW | 0.768 ± 0.026

Sequence | protein stability index
GRSAVRADFPFF | 0.703 ± 0.16
KQQTPVQNKDLR | 0.71399 ± 0.0006
YLLYSDSLCFVT | 0.659 ± 0.03
CGGAVMREGQVG | 0.681 ± 0.013
PACPPTSDFPSL | 0.623 ± 0.073
PLPTHISPPLPS | 0.6893 ± 0.006
HRLTFLDTPSGH | 0.781 ± 0.076
KKKKKKKSTKRN | 0.713 ± 0.037
PPPPSSPPHLPF | 0.651 ± 0.018
GRLWGGIKGGMG | 0.663 ± 0.0096
GVTGRGVSRVYG | 0.671 ± 0.013
LGACAGSGFKGV | 0.713 ± 0.033
VYMAGSFSRLFQ | 0.723 ± 0.034
HLGIKGFHIFGY | 0.69 ± 0.0071
STVPDRPRLPVY | 0.674 ± 0.022
PPPFSPPSDLPL | 0.601 ± 0.041
PQGAYLFTSTCI | 0.753 ± 0.054
LSPGSSPAVSGF | 0.722 ± 0.13
LAPLALPLPPPT | 0.832 ± 0.18
KKILNKEKSKMA | 0.7181 ± 0.0049
PPPPSSLPPPPC | 0.691 ± 0.012
